# Columns and labels:
# [1] = target: T1, NGF (nerve growth factor) (human, UniProt P01138 P01138:122-241); experiment: cell_activity; neurite outgrowth, NGF 0.38 nM; TF-1 IC50 0.044 nM; conditions: tags: human NGF; chain copies: 2
# [2] = target: T1, NGF (nerve growth factor); experiment: cell_activity; neurite outgrowth, NGF 0.38 nM; TF-1 IC50 0.104 nM; conditions: tags: human NGF; chain copies: 2
# Protocol: (§1) The neurite outgrowth inhibitory activity of the aptamer obtained in Example 1 was evaluated by using Neuroscreen-1 cell, which is a subclone of PC-12 cells.
# (§2) The cells (2500 cells per well) were cultured for one day in an RPMI-1640 medium containing 2.5% horse serum and 1.25% fetal bovine serum in a 96 well flat-bottom plate coated with collagen type IV. […] Two days later, the cytoplasm and nuclei were stained using Cellomics Neurite Outgrowth Kit (manufactured by Thermo Scientific), and neurite length per cell was measured by Cellomics ArrayScan VTI (manufactured by Thermo Scientific). With the neurite length per cell obtained by the addition of NGF alone as inhibitory activity 0%, and that of the cell obtained by NGF free culture for 2 days as inhibitory activity 100%, the inhibitory activity of the aptamer was calculated from the neurite length per cell obtained by culturing with the addition of NGF and the aptamer in mixture. When the inhibitory activity was 0% or below, ‘0%’ is indicated.
# [3] = target: T1, NGF (nerve growth factor); experiment: cell_activity; neurite outgrowth, NGF 0.38 nM; TF-1 IC50 0.239 nM; conditions: tags: human NGF; chain copies: 2
# Protocol: as §1, §2
# [4] = target: T1, NGF (nerve growth factor); experiment: cell_activity; neurite outgrowth, NGF 1.1 nM; SPR binding; TF-1 IC50 11.1 nM; conditions: tags: amine-coupled to CM5 chip in SPR; soluble in cell assays; chain copies: 2
# [5] = target: T1, NGF (nerve growth factor); experiment: cell_activity; neurite outgrowth, NGF 1.1 nM; SPR binding; TF-1 IC50 1.0 nM; conditions: tags: amine-coupled to CM5 chip in SPR; soluble in cell assays; chain copies: 2
# [6] = target: T1, NGF (nerve growth factor); experiment: cell_activity; neurite outgrowth, NGF 1.1 nM; SPR binding; blocks NGF-TrkA; TF-1 IC50 >30 nM; conditions: tags: amine-coupled to CM5 chip in SPR; soluble in cell assays; chain copies: 2
# Protocol: as §1, §2
# [7] = target: T1, NGF (nerve growth factor); experiment: cell_activity; neurite outgrowth, NGF 0.38 nM; SPR binding; TF-1 IC50 2.8 nM; conditions: tags: amine-coupled to CM5 chip in SPR; soluble in cell assays; chain copies: 2
# Protocol: as §1, §2
# [8] = target: T1, NGF (nerve growth factor); experiment: cell_activity; neurite outgrowth, NGF 0.38 nM; SPR binding; TF-1 IC50 1.0 nM; conditions: tags: amine-coupled to CM5 chip in SPR; soluble in cell assays; chain copies: 2
# Protocol: as §1, §2
# [9] = target: T1, NGF (nerve growth factor); experiment: cell_activity; neurite outgrowth, NGF 0.38 nM; SPR binding; TF-1 IC50 0.154 nM; conditions: tags: amine-coupled to CM5 chip in SPR; soluble in cell assays; chain copies: 2
# Protocol: as §1, §2
# [10] = target: T1, NGF (nerve growth factor); experiment: cell_activity; neurite outgrowth, NGF 1.1 nM; SPR binding; TF-1 IC50 5.7 nM; conditions: tags: amine-coupled to CM5 chip in SPR; soluble in cell assays; chain copies: 2
# Protocol: as §1, §2
# [11] = target: T1, NGF (nerve growth factor); experiment: cell_activity; neurite outgrowth, NGF 1.1 nM; SPR binding; TF-1 IC50 3.2 nM; conditions: tags: amine-coupled to CM5 chip in SPR; soluble in cell assays; chain copies: 2
# Protocol: as §1, §2
# [12] = target: T1, NGF (nerve growth factor); experiment: as above; conditions: tags: amine-coupled to CM5 chip in SPR; soluble in cell assays; chain copies: 2; remark: listed apart in the source
# [13] = target: T1, NGF (nerve growth factor); experiment: cell_activity; neurite outgrowth, NGF 1.1 nM; SPR binding; blocks NGF-TrkA; TF-1 IC50 20.4 nM; conditions: tags: amine-coupled to CM5 chip in SPR; soluble in cell assays; chain copies: 2
# Protocol: as §1, §2
# [14] = target: T1, NGF (nerve growth factor); experiment: cell_activity; neurite outgrowth, NGF 1.1 nM; SPR binding; TF-1 IC50 1.4 nM; conditions: tags: amine-coupled to CM5 chip in SPR; soluble in cell assays; chain copies: 2
# Protocol: as §1, §2
# [15] = target: T1, NGF (nerve growth factor); experiment: cell_activity; neurite outgrowth, NGF 1.1 nM; SPR binding; TF-1 IC50 >30 nM; conditions: tags: amine-coupled to CM5 chip in SPR; soluble in cell assays; chain copies: 2
# Protocol: as §1, §2
# T1 sequence (P01138 122-241, one chain of several): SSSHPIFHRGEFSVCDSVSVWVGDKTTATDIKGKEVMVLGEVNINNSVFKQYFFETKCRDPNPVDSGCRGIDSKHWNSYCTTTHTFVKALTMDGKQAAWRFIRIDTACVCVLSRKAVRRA
binder,measurement,setting,value
"GGGAGACUCGCCAGAGUUGAAAGAAACCCAAAUAAGUGUGCGCAC (ssRNA, 5' and 3' idT; 2'-F all pyrimidines; 2'-OMe all purines except ribo g3,g5,g19,a20,a21,a22,a24) [aptamer ID 26(10)]",IC50,[1],0.047 nM
"GGGAGACUCGCCAGAGUUGAAAGAAACCCAAAUAAGUGUGCGCAC (ssRNA, 5' and 3' idT; 2'-F all pyrimidines; 2'-OMe all purines except ribo g3,g19,a20,a26) [aptamer ID 26(19)]",IC50,[2],< 0.01 nM
"GGGAGACUCGCCAGAGUUGAAAGAAACCCAAAUAAGUGUGCGCAC (ssRNA, as 26(19) (5' and 3' idT; 2'-F pyrimidines; 2'-OMe purines except ribo g3,g19,a20,a26) but u33 is 2'-OMe) [aptamer ID 26(34)]",IC50,[3],0.247 nM
"aptamer ID 10 (ssRNA, 2'-F at all pyrimidines) RNA: GGGAGAACUUCGCCAGAAGUUUGAAAGAAACCCAAAUUAAAAAGUAUGUGCGCAUACA",IC50,[4],< 3 nM
"aptamer ID 21 (ssRNA, 2'-F at all pyrimidines) RNA: GGGAGAACUUCGCCAGAAGUUUGAAAGAAACCCAAAUAAAGAGUGCGCUCA",IC50,[5],1.1 nM
"aptamer ID 32 (ssRNA, 2'-F at all pyrimidines) RNA: GGGAGAACUUCGACCAGAAGUCGAUAACGAACAAAACUCCCAAAGGAAUAUAUGUGCGCAUACA",IC50,[6],1 nM
"GGGAGACUCGCAGAGUUGAAAGAAACCCAAAUAGUGUGCGCAC (ssRNA, 2'-F at all pyrimidines) [aptamer ID 30]",IC50,[7],< 0.3 nM
"GGGAGACUCGCCAGAGUUGAAAGAAACCCAAAUAGUGUGCGCAC (ssRNA, 2'-F at all pyrimidines) [aptamer ID 29]",IC50,[8],< 0.3 nM
"GGGAGACUCGCCAGAGUUGAAAGAAACCCAAAUAGUGUGCGCAC (ssRNA, 2'-F pyrimidines; 2'-OMe purines except 2'-OH at 3,19,20; 5' idT and 3' idT) [aptamer ID 29(1)]",IC50,[9],0.058 nM
"GGGAGACUCGCCAGAGUUGAAAGAAACCCAAAUAAAGAUGUGCGCAUCA (ssRNA, 2'-F at all pyrimidines) [aptamer ID 22]",IC50,[10],1.3 nM
"GGGAGACUCGCAGAGUUGAAAGAAACCCAAAUAAAGUGUGCGCACA (ssRNA, 2'-F at all pyrimidines) [aptamer ID 27]",IC50,[11],< 1 nM
"aptamer ID 19 (ssRNA, 2'-F at all pyrimidines) RNA: GGGAGAACUUCGCCAGAAGUUUGAAAGAAACCCAAAUAAAGAUGUGCGCAUC",IC50,[12],1.3 nM
"aptamer ID 1 (ssRNA, 2'-F at all pyrimidines) RNA: GGGAGAACUUCGACCAGAAGUUUGAAAGAAACCCAAAUUAAAGUGAACAGUAUGUGCGCAUACA",IC50,[13],2.1 nM
"GGGAGACUCGCAGAGUUGAAAGAAACCCAAAUAAGUGUGCGCAC (ssRNA, 2'-F at all pyrimidines) [aptamer ID 28]",IC50,[14],< 1 nM
"aptamer ID 43 (ssRNA, 2'-F at all pyrimidines) RNA: GGGAGAACUUCGACCAGAAGUCGAUAACGAACAAAACUCCCAAAUAUGUGCGCAUACA",IC50,[15],< 3 nM

# From patent US20130052176, “APTAMER FOR NGF AND USE THEREOF” (SHIONOGI & CO., LTD, published 2013)
